# Data reported in patent publication USRE48267E1, “Variants of C-type natriuretic peptide” (priority 2009, dated 2020).
# *1 amine or outer side, *2 acyl side, *3 side chain or, on linkers, in order; H or OH if unused. Where a SMILES comes first, the peptide text is derived from it. Bridges are numbered along the chain shown (N, C = ends). Where no end group is shown, it is not given here. [ ]: non-standard residue; d: D form. X1 = O=C(C(CN[*:1])c1ccccc1)[*:2]; NMeL = CN[C@@H](CC(C)C)C(=O)O; Tle = CC(C)(C)[C@H](N)C(=O)O
# T1: NPR-B (natriuretic peptide receptor B), murine, expressed endogenously on NIH3T3 cells (murine, UniProt Q6VVW5 17-1047)
# T1 sequence (looked up): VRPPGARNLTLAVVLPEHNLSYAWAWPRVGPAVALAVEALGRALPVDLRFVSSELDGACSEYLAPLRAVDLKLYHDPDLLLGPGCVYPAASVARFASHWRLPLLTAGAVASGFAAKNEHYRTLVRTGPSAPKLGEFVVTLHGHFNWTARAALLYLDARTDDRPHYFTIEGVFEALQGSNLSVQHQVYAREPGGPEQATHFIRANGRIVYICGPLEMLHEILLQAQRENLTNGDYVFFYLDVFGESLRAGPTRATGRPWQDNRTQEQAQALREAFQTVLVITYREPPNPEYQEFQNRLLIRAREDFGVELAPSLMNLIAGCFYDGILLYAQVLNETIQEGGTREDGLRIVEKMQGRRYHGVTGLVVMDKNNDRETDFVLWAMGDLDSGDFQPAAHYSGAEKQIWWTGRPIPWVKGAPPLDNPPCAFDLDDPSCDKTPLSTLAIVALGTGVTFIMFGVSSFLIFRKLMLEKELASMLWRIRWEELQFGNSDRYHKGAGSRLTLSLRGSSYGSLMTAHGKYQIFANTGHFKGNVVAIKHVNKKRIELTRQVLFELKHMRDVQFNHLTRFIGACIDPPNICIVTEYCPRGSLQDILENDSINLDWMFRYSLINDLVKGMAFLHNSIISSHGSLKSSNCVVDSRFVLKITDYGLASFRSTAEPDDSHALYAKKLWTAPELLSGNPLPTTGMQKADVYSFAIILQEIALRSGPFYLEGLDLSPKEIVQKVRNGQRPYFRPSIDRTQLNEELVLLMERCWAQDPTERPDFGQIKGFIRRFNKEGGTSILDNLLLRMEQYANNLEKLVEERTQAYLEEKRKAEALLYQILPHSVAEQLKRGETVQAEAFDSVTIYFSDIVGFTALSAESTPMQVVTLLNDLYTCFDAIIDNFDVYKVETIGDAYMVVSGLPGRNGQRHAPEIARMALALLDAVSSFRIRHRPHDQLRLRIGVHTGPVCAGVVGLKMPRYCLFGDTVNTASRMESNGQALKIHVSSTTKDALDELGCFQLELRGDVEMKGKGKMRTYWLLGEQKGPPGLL
# Target: T1, NPR-B (natriuretic peptide receptor B), …
# Test: cell-based or functional assay
# Conditions: not given
Molecule,"cGMP response rel. to 1 uM CNP22; 10 nM peptide, NIH3T3 cells","cGMP response rel. to 1 uM CNP22; 1 uM peptide, NIH3T3 cells"
"GLSKGCFG[NMeL]KLDRIGSMSGLGC (ends and bridges not checked) [CNP22, N-methyl-L9]",2 rel. to 1 uM CNP22 (100),8 rel. to 1 uM CNP22 (100)
G[dL][dS][dK]G[dC][dF]G[dL][dK][dL][dD][dR][dI]G[dS][dM][dS]G[dL]G[dC] (ends and bridges not checked) [D-CNP22 (all D-amino acids)],2 rel. to 1 uM CNP22 (100),1 rel. to 1 uM CNP22 (100)
"GLSKGCXGLKLDRIGSMSGLGC (3-Cl-Phe at 7) [CNP22, 3-chloro-F7]",17 rel. to 1 uM CNP22 (100),93 rel. to 1 uM CNP22 (100)
"GLSKGCFGLKLDRIGSMSGLGC (ends and bridges not checked; also: backbone C=O of Cys6 reduced to CH2 (C6-CH2-NH isostere)) [CNP22, C6-CH2-NH (reduced carbonyl)]",6 rel. to 1 uM CNP22 (100),66 rel. to 1 uM CNP22 (100)
"GLSKGCFG[NMeL]KLDRIGSMSG[NMeL]GC (ends and bridges not checked) [CNP22, N-methyl-L9, N-methyl-L20]",1 rel. to 1 uM CNP22 (100),1 rel. to 1 uM CNP22 (100)
"GLSKGCXGLKLDRIGSMSGLGC (N-methyl-Phe at 7) [CNP22, N-methyl-F7 (methylated amide)]",2 rel. to 1 uM CNP22 (100),38 rel. to 1 uM CNP22 (100)
"GLSKGCFG[NMeL]K[NMeL]DRIGSMSG[NMeL]GC (ends and bridges not checked) [CNP22, N-methyl-L9, N-methyl-L11, N-methyl-L20]",18 rel. to 1 uM CNP22 (100),10 rel. to 1 uM CNP22 (100)
"GLSKGCXGLKLDRIGSMSGLGC (D-Phe at 7) [CNP22, D-F7 (D-Phe)]",2 rel. to 1 uM CNP22 (100),6 rel. to 1 uM CNP22 (100)
"GLSKGCFGLKLDRIGSMSG[NMeL]GC (ends and bridges not checked) [CNP22, N-methyl-L20]",2 rel. to 1 uM CNP22 (100),5 rel. to 1 uM CNP22 (100)
"GLSKGCF[Tle]LKLDRIGSMSGLGC (ends and bridges not checked) [CNP22, t-butyl-G8]",2 rel. to 1 uM CNP22 (100),18 rel. to 1 uM CNP22 (100)
"GLSKGCFGLK[NMeL]DRIGSMSGLGC (ends and bridges not checked) [CNP22, N-methyl-L11]",10 rel. to 1 uM CNP22 (100),51 rel. to 1 uM CNP22 (100)
GLSKGCFGLKLDRIGSMSGLGC [CNP22 (wild-type human CNP-22)],46 rel. to 1 uM CNP22 (100),100 rel. to 1 uM CNP22 (100)
"GLSKGCFG[NMeL]K[NMeL]DRIGSMSGLGC (ends and bridges not checked) [CNP22, N-methyl-L9, N-methyl-L11]",1 rel. to 1 uM CNP22 (100),11 rel. to 1 uM CNP22 (100)

# Target: neutral endopeptidase (NEP) (Homo sapiens, UniProt P08473)
# Sequence (P08473 whole entry): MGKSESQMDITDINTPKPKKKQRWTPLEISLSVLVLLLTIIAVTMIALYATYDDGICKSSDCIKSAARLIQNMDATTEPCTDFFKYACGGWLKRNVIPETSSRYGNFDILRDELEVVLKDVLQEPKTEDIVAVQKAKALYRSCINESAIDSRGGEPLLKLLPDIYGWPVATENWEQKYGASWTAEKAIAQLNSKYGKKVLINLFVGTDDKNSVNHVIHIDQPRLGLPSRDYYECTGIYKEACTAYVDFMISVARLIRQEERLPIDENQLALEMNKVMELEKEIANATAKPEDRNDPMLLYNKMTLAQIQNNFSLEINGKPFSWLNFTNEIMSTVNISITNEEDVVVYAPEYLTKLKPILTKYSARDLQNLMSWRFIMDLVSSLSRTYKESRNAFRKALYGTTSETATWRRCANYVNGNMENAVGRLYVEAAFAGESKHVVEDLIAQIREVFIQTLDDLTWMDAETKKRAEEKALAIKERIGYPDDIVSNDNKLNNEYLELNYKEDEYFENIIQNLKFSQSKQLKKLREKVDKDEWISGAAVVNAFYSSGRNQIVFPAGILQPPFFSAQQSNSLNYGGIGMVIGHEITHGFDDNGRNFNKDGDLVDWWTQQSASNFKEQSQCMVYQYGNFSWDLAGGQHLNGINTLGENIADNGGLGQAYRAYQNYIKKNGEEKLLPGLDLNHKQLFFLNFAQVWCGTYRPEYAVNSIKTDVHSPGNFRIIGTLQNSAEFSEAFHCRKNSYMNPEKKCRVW
# Test: in vitro
# Conditions: human, pH 7
# Summary of the method: (§1)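 Recombinant human NEP (1 ug/mL final) incubated with 100 uM CNP variant in 0.1 M Tris, pH 7, at 37° C for various times, then quenched with EDTA (10 mM final) and heat. Samples reduced and analysed by HPLC and mass spectrometry. Half-life derived from loss of intact variant over time.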
row,Molecule,half-life at 100 uM [h]
1,CC[C@H](C)[C@@H]1NC(=O)[C@H](CCCNC(=N)N)NC(=O)[C@H](CC(=O)O)NC(=O)[C@H](CC(C)C)NC(=O)[C@H](CCCCN)NC(=O)[C@H](CC(C)C)NC(=O)CNC(=O)[C@H](Cc2ccccc2)NC(=O)[C@@H](NC(=O)CNC(=O)[C@H](CCCCN)NC(=O)[C@H](CO)NC(=O)[C@H](CC(C)C)NC(=O)CNC(=O)CCOCCOCCOCCOCCOCCOCCOCCOCCOCCOCCOCCOC)CSSC[C@@H](C(=O)O)NC(=O)CNC(=O)[C@H](CC(C)C)NC(=O)CNC(=O)[C@H](CO)NC(=O)[C@H](CCSC)NC(=O)[C@H](CO)NC(=O)CNC1=O [PEO12-CNP22],2.67
2,CC[C@H](C)[C@@H]1NC(=O)[C@H](CCCNC(=N)N)NC(=O)[C@H](CC(=O)O)NC(=O)[C@H](CC(C)C)NC(=O)[C@H](CCCCN)NC(=O)[C@H](CC(C)C)NC(=O)CNC(=O)[C@H](Cc2ccccc2)NC(=O)[C@@H](NC(=O)CNC(=O)[C@H](CCCCN)NC(=O)[C@H](CO)NC(=O)[C@H](CC(C)C)NC(=O)CNC(=O)CCCC(=O)NCCOCCOCCOCCOCCC(=O)NC(COCCC(=O)NCCOCCOCCOCCOCCOCCOCCOCCOCCOCCOCCOC)(COCCC(=O)NCCOCCOCCOCCOCCOCCOCCOCCOCCOCCOCCOC)COCCC(=O)NCCOCCOCCOCCOCCOCCOCCOCCOCCOCCOCCOC)CSSC[C@@H](C(=O)O)NC(=O)CNC(=O)[C@H](CC(C)C)NC(=O)CNC(=O)[C@H](CO)NC(=O)[C@H](CCSC)NC(=O)[C@H](CO)NC(=O)CNC1=O [PEO4-(PEO12)3(branched)-CNP22],> 2.67
3,CC[C@H](C)[C@@H]1NC(=O)[C@H](CCCNC(=N)N)NC(=O)[C@H](CC(=O)O)NC(=O)[C@H](CC(C)C)NC(=O)[C@H](CCCCN)NC(=O)[C@H](CC(C)C)NC(=O)CNC(=O)[C@H](Cc2ccccc2)NC[C@@H](NC(=O)CNC(=O)[C@H](CCCCN)NC(=O)[C@H](CO)NC(=O)[C@H](CC(C)C)NC(=O)CN)CSSC[C@@H](C(=O)O)NC(=O)CNC(=O)[C@H](CC(C)C)NC(=O)CNC(=O)[C@H](CO)NC(=O)[C@H](CCSC)NC(=O)[C@H](CO)NC(=O)CNC1=O [Analog A],0.917

# Same assay, conditions: human, recombinant human NEP (neutral endopeptidase), pH 7
row,Molecule,half-life at 100 uM [h]
1,CC[C@H](C)[C@@H]1NC(=O)[C@H](CCCNC(=N)N)NC(=O)[C@H](CC(=O)O)NC(=O)[C@H](CC(C)C)NC(=O)[C@H](CCCCN)NC(=O)[C@H](CC(C)C)NC(=O)CNC(=O)C(c2ccccc2)CNC(=O)[C@@H](NC(=O)CNC(=O)[C@H](CCCCN)NC(=O)[C@H](CO)NC(=O)[C@H](CC(C)C)NC(=O)CN)CSSC[C@@H](C(=O)O)NC(=O)CNC(=O)[C@H](CC(C)C)NC(=O)CNC(=O)[C@H](CO)NC(=O)[C@H](CCSC)NC(=O)[C@H](CO)NC(=O)CNC1=O (stereo partly drawn) [Analog H] (H-GLSKGC[X1]GLKLDRIGSMSGLGC-OH; disulfide 6-22),1.33

# Same assay, conditions: human, recombinant human neutral endopeptidase (NEP), pH 7
row,Molecule,half-life at 100 uM [h]
1,"CC[C@H](C)[C@@H]1NC(=O)[C@H](CCCNC(=N)N)NC(=O)[C@H](CC(=O)O)NC(=O)[C@H](CC(C)C)NC(=O)[C@H](CCCCN)NC(=O)[C@H](CC(C)C)NC(=O)CNC(=O)[C@H](Cc2ccccc2)NC(=O)[C@@H](NC(=O)CNC(=O)CNC(=O)[C@H](CO)NC(=O)[C@H](CC(C)C)NC(=O)CN)CSSC[C@@H](C(=O)O)NC(=O)CNC(=O)[C@H](CC(C)C)NC(=O)CNC(=O)[C@H](CO)NC(=O)[C@H](CCSC)NC(=O)[C@H](CO)NC(=O)CNC1=O [Analog P, CNP22, K4G] (H-GLSGGCFGLKLDRIGSMSGLGC-OH; disulfide 6-22)",1.13

# Target: Recombinant human NEP (Homo sapiens, UniProt P08473)
# Sequence (P08473 whole entry): as the sequence (P08473 whole entry) above
# Test: in vitro NEP cleavage assay (disappearance of non-cleaved CNP variant)
# Conditions: not given
# Summary of the method: as §1
row,Molecule,resistance to cleavage at the Cys6-Phe7 bond relative to wtCNP22
1,CC[C@H](C)[C@@H]1NC(=O)[C@H](CCCNC(=N)N)NC(=O)[C@H](CC(=O)O)NC(=O)[C@H](CC(C)C)NC(=O)[C@H](CCCCN)NC(=O)[C@H](CC(C)C)NC(=O)CNC(=O)C(c2ccccc2)CNC(=O)[C@@H](NC(=O)CNC(=O)[C@H](CCCCN)NC(=O)[C@H](CO)NC(=O)[C@H](CC(C)C)NC(=O)CN)CSSC[C@@H](C(=O)O)NC(=O)CNC(=O)[C@H](CC(C)C)NC(=O)CNC(=O)[C@H](CO)NC(=O)[C@H](CCSC)NC(=O)[C@H](CO)NC(=O)CNC1=O (stereo partly drawn) [Analog H] (H-GLSKGC[X1]GLKLDRIGSMSGLGC-OH; disulfide 6-22),resistance or improved resistance
2,CC[C@H](C)[C@@H]1NC(=O)[C@H](CCCNC(=N)N)NC(=O)[C@H](CC(=O)O)NC(=O)[C@H](CC(C)C)NC(=O)[C@H](CCCCN)NC(=O)[C@H](CC(C)C)NC(=O)CNC(=O)[C@H](Cc2ccccc2)NC[C@@H](NC(=O)CNC(=O)[C@H](CCCCN)NC(=O)[C@H](CO)NC(=O)[C@H](CC(C)C)NC(=O)CN)CSSC[C@@H](C(=O)O)NC(=O)CNC(=O)[C@H](CC(C)C)NC(=O)CNC(=O)[C@H](CO)NC(=O)[C@H](CCSC)NC(=O)[C@H](CO)NC(=O)CNC1=O [Analog A],resistance or improved resistance
